Test [1] addresses 8th_AtGDH-A216Q (Aspergillus terreus). The test is described as follows: SEC. On the technique in general: Size exclusion chromatography separates by hydrodynamic size, large species first.
In test [2] the target is Aspergillus terreus glutamate dehydrogenase, wild type (Aspergillus terreus). The test is described as follows: crystal structure.
For test [3] the target is unchanged. The test is described as follows: cryo-EM structure.
The target in test [4] is AnGDH-Q216A (Aspergillus niger). Description: SEC.
Test [5] has as its target AnGDH-S246R (Aspergillus niger). The test is described as follows: SEC.
The target in test [6] is 2nd_AtGDH-ΔT262-A263 (Aspergillus terreus). Description: crystal structure.
Test [7] shares this target. The test is described as follows: SEC.
For test [8], the target named is 7th_AtGDH-R246S (Aspergillus terreus). The test is described as follows: crystal structure.
For test [9] the target is unchanged. Description: SEC.
Test [10] addresses Aspergillus niger glutamate dehydrogenase, wild type (Aspergillus niger). The test is described as follows: cryo-EM structure.

As for 8th_AtGDH-A216Q (enzyme), in [1], the stoichiometry N came out at 6. As to “Aspergillus terreus glutamate dehydrogenase, wild type (enzyme)”, the stoichiometry N in test [2] and in [3] was 6 throughout. For the substance AnGDH-Q216A (enzyme), in test [4], the stoichiometry N is 6.

With AnGDH-S246R (enzyme), the stoichiometry N in test [5] was found to be 6. 2nd_AtGDH-ΔT262-A263 (enzyme): the stoichiometry N in [6] and in test [7] was 6 in each case. Take 7th_AtGDH-R246S (enzyme): the stoichiometry N in test [8] and in test [9] was 6 throughout. “Aspergillus niger glutamate dehydrogenase, wild type (enzyme)”: the stoichiometry N in test [10] stood at 6.

Usually stoichiometry N stands for the number of molecules, sites or subunits per partner or assembly.

(Values after paper doi:10.1101/2024.04.12.589225.)
